{"source": "paper PMC8930418", "molecular_target": "dSpCas9 (catalytically inert dCas9) (UniProt Q99ZW2)", "sequence (Q99ZW2 whole entry)": "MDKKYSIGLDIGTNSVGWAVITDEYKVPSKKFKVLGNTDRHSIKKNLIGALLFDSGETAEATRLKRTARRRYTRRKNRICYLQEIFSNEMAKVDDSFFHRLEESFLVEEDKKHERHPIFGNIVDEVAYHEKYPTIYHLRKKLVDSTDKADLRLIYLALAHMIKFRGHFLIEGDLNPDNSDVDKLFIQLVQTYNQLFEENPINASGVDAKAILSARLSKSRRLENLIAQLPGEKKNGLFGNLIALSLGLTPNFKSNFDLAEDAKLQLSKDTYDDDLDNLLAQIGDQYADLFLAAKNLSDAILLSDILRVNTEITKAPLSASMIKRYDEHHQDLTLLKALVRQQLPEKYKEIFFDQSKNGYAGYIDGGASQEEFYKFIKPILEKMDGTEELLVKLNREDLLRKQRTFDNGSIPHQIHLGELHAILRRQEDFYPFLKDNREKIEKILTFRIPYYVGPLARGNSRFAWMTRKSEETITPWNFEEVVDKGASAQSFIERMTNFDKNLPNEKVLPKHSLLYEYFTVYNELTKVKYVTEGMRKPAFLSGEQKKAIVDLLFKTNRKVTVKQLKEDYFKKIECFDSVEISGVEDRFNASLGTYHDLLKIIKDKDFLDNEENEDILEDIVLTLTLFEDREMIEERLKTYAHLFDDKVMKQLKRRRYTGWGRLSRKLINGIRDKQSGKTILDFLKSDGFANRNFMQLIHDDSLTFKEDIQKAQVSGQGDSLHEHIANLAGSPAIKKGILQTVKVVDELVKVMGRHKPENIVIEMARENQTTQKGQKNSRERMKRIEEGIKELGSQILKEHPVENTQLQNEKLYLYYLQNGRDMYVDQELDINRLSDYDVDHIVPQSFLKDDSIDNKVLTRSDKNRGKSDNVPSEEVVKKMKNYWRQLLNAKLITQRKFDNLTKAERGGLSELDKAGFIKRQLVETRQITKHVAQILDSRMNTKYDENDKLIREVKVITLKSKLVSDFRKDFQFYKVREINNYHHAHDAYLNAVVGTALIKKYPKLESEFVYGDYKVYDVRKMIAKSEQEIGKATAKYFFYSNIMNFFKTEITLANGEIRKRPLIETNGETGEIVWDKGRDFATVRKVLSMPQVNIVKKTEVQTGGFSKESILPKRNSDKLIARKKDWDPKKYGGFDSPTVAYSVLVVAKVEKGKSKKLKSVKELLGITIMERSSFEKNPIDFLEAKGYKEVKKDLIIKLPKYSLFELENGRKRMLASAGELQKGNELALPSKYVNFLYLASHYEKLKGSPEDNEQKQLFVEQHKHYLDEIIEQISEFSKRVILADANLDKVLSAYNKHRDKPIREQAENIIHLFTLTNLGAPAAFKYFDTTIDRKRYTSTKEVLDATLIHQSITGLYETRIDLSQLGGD", "experiment": "MST"}
{"sequence": "GGCCCAGACTGAGCACGTGAGTTTTAGAGCTAGAAATAGCAAGTTAAAATAAGGCTAGTCCGTTATCAACTTGAAAAAGTGGCACCGAGTCGGTGCTGGAGGAAGCAGGGCTTCCTTTCCTCTGCCATCACTTATCGTCGTCATCCTTGTAATCCGTGCTCAGTCTGTCTCTCTCTTGACGCGGTTCTATCTAGTTACGCGTTAAACCAACTAGAAATTTTTT [evopreQ1 epegRNA (guide) + HEK3 dsDNA target]", "values": [{"measurement": "Kd", "result": 10, "unit": "nM"}]}
{"sequence": "GGCCCAGACTGAGCACGTGAGTTTTAGAGCTAGAAATAGCAAGTTAAAATAAGGCTAGTCCGTTATCAACTTGAAAAAGTGGCACCGAGTCGGTGCTGGAGGAAGCAGGGCTTCCTTTCCTCTGCCATCACTTATCGTCGTCATCCTTGTAATCCGTGCTCAGTCTGTTTTTT [unmodified pegRNA (guide) + HEK3 dsDNA target]", "values": [{"measurement": "Kd", "result": 8.1, "unit": "nM"}]}
